In patent publication US6913917B2, “Anti-cocaine catalytic antibody” (priority 1996, dated 2005):
Substitutions are numbered along the chain they refer to. Entries after “also recorded” stand apart in the source; their conditions may differ.

B1: Mab 15A10: mouse monoclonal anti-cocaine catalytic antibody elicited by TSA 1; most active (antibody, V domains shown)
VH: SGPELVKPGASVKVSCKASGYSFTDYNMYWVKQNHGESLEWIAYIDPSNGDTFYNQKFQGKATVTLDKSSSTAFMHLNSLTSEDSAVYYCARGGGLFAFWGQGTLVTVSA
VL: AVVTQESALTTSPGETVTLTCRSSTGTITSDNYANWVQEKPDHLFSGLIGVNNYRPPGVPARFSGSLTGDKAVLTITGAQTEDEAIYFCALWYSNHWVFGGGTKLTVLG
modifications: mouse
B2: Mab 3B9: anti-cocaine catalytic monoclonal antibody elicited by TSA 1 (antibody, V domains shown)
VH: DVQLQESGPGLVKPSQSLSLTCTVTGNSITSDYAWTWIRQFPGNKLEWMGYIRHIYGTRYNPSLISRISITRDTSKNQFFLQLDSVTAEDTATYYCVRYHYYGSAYWGQGTLVTVSAAKTTP
VL: DIVMTQDELSNPVTSGESVSISCRSSRSLLYRDGKTYLNWFLQRPGRSPQLLIYLMSTRSSGVSDRFSGSGSGTDFTLEISRVKAEDVGVYYCQHFVDYPFTFGSGTKLEIKR
modifications: mouse
B3: Mab 6A12: anti-cocaine catalytic monoclonal antibody elicited by TSA 1 (antibody)
heavy: B2 VH
light: B2 VL with I2M, S60A, C93F, V97E
modifications: mouse
B4: Mab 2A10: anti-cocaine catalytic monoclonal antibody elicited by TSA 1 (antibody)
heavy: ELVKPSQSLSLTCTVTGYSITSDYAWNWIRQFPGNRLEWMGYIRYSGITRYNPSLKSRISITRDTSKNKFFLQLNSVTTEDTATYYCVRIHYYGYGNWGQGTTLTGLP
light: B2 VL with I2M, R27K, R32E, R47Q, Q50H, S60A, V90A, H95Q, D98E, K112R
modifications: mouse
B5: Mab 9A3: anti-cocaine catalytic monoclonal antibody elicited by TSA 1 (antibody, V domains shown)
VH: SGPELVKPGASVKLSCKASGYPFTDYNMYWVKQSHGKSLEWIGYIDPSNGGIFYNQKFKGRATLTVDKSSNTAFMHLNSLTSEDSAVYYCARGGGLFAYWGQGTLVTVSE
VL: TWPGETVTLTCRSSTGTITTSNYANWVQEKPDHLFSGLIGINNNRPPGVPARFSGSLIGDKAVLTITGAQTEDEAIYFCALWYSNHWVFGGGTKLTVLG
modifications: mouse
B6: Mab 8G4G: anti-cocaine catalytic monoclonal antibody elicited by TSA 3 (antibody)
heavy: VQLLESGAELVKPGASVELSCRTSGYTFTTYYIYWVKQRPGQGLEWIGGMNPGNGVTYFNEKFKNRATLTVDRSSSIAYMQLSSLTSEDSAVYYCTRVGNSLLTGAEGLWSLSLQ
light: TRAGETVTLTCRSSSGTITANNYGSWVQEKPDHLFTGLIGVSNNRGPGVPARFSGSLIGDKAVLTITGGQTEDEAIYFCALWNSNHFVFGGGTKLTVLGQ
modifications: mouse
B7: Mab 8G4E: anti-cocaine catalytic monoclonal antibody elicited by TSA 3 (antibody, V domains shown)
VH: VQLLESGAELVMPGASVKMSCKASGYTFTDHWMHWVKQRPGQGLEWIGTIDLSDTYTGYNQNFKGRATLTLDESSNTAYMQLSSLTSEDSAVYYCSRRGFDYWGQGTTLTVSS
VL: ELVMTQSPLTLSVTIGQPASISCKSSQSLLYSDGKTYLNWFFQRPGQSPKRLIYLVSKLDSGVPDRFTGSGSGKDFTLKISRVEAEDLGLYYCVQGYTFPLTFGAGTKLELKR
modifications: mouse
B8: single chain Fv fragment: single chain Fv fragment for catalytic monoclonal antibody 3B9, with FLAG and 6×His (protein)
scFv: MEVQLQESGPELVKPSQSLSLTCTVTGNSITSDYAWTWIRQFPGNKLEWMGYIRHIYGTRYNPSLISRISITRDTSKNQFFLQLDSVTAEDTATYYCVRYHYYGSAYWGQGTLVTVSAGMQSGGGGSGGGGSGGAMDIVMTQDELSNPVTSGESVSISCRSSRSLLYRDGKTYLNWFLQRPGRPPQLLIYLMSTRSSGVSDRFSGSGSGTDFTLEISRVKAEDVGVYYCQHFVDYPFTFGSGTKLEIKRADGAPTVSIFFPPSLDYKDDDDKLEHHHHHH
modifications: FLAG and 6xHis tags; mouse
notes: single chain Fv fragment for catalytic monoclonal antibody 3B9, with FLAG and 6×His
B9: butyrylcholinesterase: the enzyme butyrylcholinesterase; plasma enzyme that deactivates cocaine (protein, UniProt P06276 29-602, looked up)
Cholinesterase: EDDIIIATKNGKVRGMNLTVFGGTVTAFLGIPYAQPPLGRLRFKKPQSLTKWSDIWNATKYANSCCQNIDQSFPGFHGSEMWNPNTDLSEDCLYLNVWIPAPKPKNATVLIWIYGGGFQTGTSSLHVYDGKFLARVERVIVVSMNYRVGALGFLALPGNPEAPGNMGLFDQQLALQWVQKNIAAFGGNPKSVTLFGESAGAASVSLHLLSPGSHSLFTRAILQSGSFNAPWAVTSLYEARNRTLNLAKLTGCSRENETEIIKCLRNKDPQEILLNEAFVVPYGTPLSVNFGPTVDGDFLTDMPDILLELGQFKKTQILVGVNKDEGTAFLVYGAPGFSKDNNSIITRKEFQEGLKIFFPGVSEFGKESILFHYTDWVDDQRPENYREALGDVVGDYNFICPALEFTKKFSEWGNNAFFYYFEHRSSKLPWPEWMGVMHGYEIEFVFGLPLERRDNYTKAEEILSRSIVKRWANFAKYGNPNETQNNSTSWPVFKSTEQKYLTLNTESTRIMTKLRAQQCRFWTSFFPKVLEMTGNIDEAEWEWKAGFHRWNNYMMDWKNQFNDYTSKKESCVGL

Key:
Mab 15A10 = test: Inhibition of Mab 15A10 cocaine hydrolysis; type: biochemical, Mouse; conditions: for Ki: read-out: inhibition constant (K1 / Ki) for Mab 15A10; for inhibition of Mab 15A10: at 1 mM
[1] = tested on: conscious, unrestrained animals; conditions: continuously infused cocaine 1 mg/kg/min, i.v. catecholamine infusion; previous work (19); cited from earlier work
[2] = inhalation of vaporized cocaine; cited from earlier work
catalytic mAb = test: Inhibition of the activity of the catalytic mAbs; type: biochemical, mouse
[3] = tested on: cocaine esterase activity present in serum; test: Inhibition of cocaine esterase activity present in serum; type: biochemical; conditions: 150 μM
[4] = ELISA with TSA 1, 2, and 3 bound to ovalbumin; type: binding
Excerpt: The rationale for varying the tether sites of TSA to carrier protein (BSA) was to expose unique epitopes and elect catalytic antibodies specific to each immunogen. In order to assess binding specificity, the catalytic antibodies were examined by ELISA with TSA 1, 2, and 3 bound to ovalbumin.

LD90 cocaine = test: Survival after LD90 cocaine infusion; type: in vivo, rat; conditions: for survival to LD90 cocaine infusion: cocaine 16 mg/kg at 1 mg/kg/min
[5] = Plasma concentrations at death by HPLC; type: in vivo, rat; conditions: compared to saline or Mab 1C1 control groups, antibody 100 mg/kg
[6] = Hydrolysis of 3H-cocaine by Mab's (kinetic measurements); conditions: for Km: Michaelis constant, pH that optimized kcat/ko: in general pH 7.8, 6A12 pH 7.4, 2A10 pH 7.0; for krat: catalytic rate constant (turnover rate), same pH as Km; for kcat/ko: rate acceleration over spontaneous rate (kcat/kuncat)
[7] = tested on: cocaine-induced convulsions or death; conditions: antibody 100 mg/kg
[8] = Elisa analysis of single chain Fv fragment; type: binding; conditions: scFv of Mab 3B9
[9] = tested on: toxicity due to intraperitoneal cocaine; conditions: intraperitoneal administration, mouse; cited from earlier work
[10] = cocaine 1 mg/kg/min until death

Molecule | binding specificity by ELISA [4] | Km [6] [µM] | krat [6] [min⁻¹] | kcat/ko [6] | further results
O=C(O)c1ccccc1 [benzoic acid] | – | – | – | – | Kd (Mab 15A10; read-out: Kd, inhibition of Mab 15A10 in vitro): ~250 µM; Ki (Mab 15A10): 250 µM
CN1[C@H]2CC[C@@H]1[C@@H](C(=O)O)[C@@H](OC(=O)c1ccccc1)C2 [benzoyl ecgonine] | – | – | – | – | inhibition of Mab 15A10 (Mab 15A10): no inhibition
COC(=O)[C@H]1[C@@H](OC(=O)c2ccccc2)C[C@@H]2CC[C@H]1N2C [cocaine] | – | – | – | – | LD50 [1]: 10 mg/kg; LD90 [1]: 16 mg/kg; peak pulmonary vein concentration [2]: 10 to 30 µM
COC(=O)[C@@H]1[C@H]2CC[C@@H](C[C@@H]1O)N2C [ecgonine methyl ester] | – | – | – | – | inhibition of Mab 15A10 (Mab 15A10): not inhibited; also recorded: not observed
CNC(=O)Oc1ccc2c(c1)[C@]1(C)CCN(C)[C@@H]1N2C [eserine, reference compound] | – | – | – | – | inhibition of the activity of any catalytic mAb (catalytic mAb; 1 mM): did not inhibit
COC(=O)C1C(OP(=O)(O)c2ccccc2)CC2CCC1N2C (centres unmarked) [free TSA 4] | – | – | – | – | inhibition of Mab 15A10 catalytic activity (Mab 15A10; free TSA 50 μM, bioreactor-produced Mab 15A10): completely inhibited; Ki (Mab 15A10): 0.23 µM; inhibition of all catalytic antibodies (enzymes) (catalytic mAb; 50 μM): inhibited completely; inhibition of cocaine esterase activity present in serum [3]: did not inhibit
O=C(O)CNC(=O)c1ccccc1 [hippuric acid] | – | – | – | – | inhibition of Mab 15A10 (Mab 15A10): did not inhibit; also recorded: not an inhibitor
B1 | bound only TSA-1 and 3 | 220 | 2.3 | 2.3×10^4 | mean cocaine dose at death (LD90 cocaine; antibody 5 mg/kg): 8.2 ± 1.0 mg/kg; cocaine dose at death of the single non-survivor (LD90 cocaine; antibody 15 mg/kg): 15.9 mg/kg; survival to LD90 cocaine infusion (LD90 cocaine; antibody 15 mg/kg i.v.): Four of five; survival to LD90 cocaine infusion (LD90 cocaine; antibody 50 mg/kg i.v.): all of five; effect on survival / protection from cocaine toxicity (LD90 cocaine; result in words, p<0.001): dose-dependent increase in survival; also recorded: significant; increase in plasma ecgonine methyl ester [5]: > 10 fold; kcat (activity) remaining after repetitive turnover ([6]; after 6 hrs and >200 turnovers, of baseline): > 95%; potency relative to the first catalytic antibodies ([6]; at sub-saturating concentrations of cocaine): 100 fold; kcat/ko ([6]; listed as 15A10): 23000; increase of mean lethal dose of cocaine over controls [7]: over 3 fold; dose of cocaine at seizure (average) [7, 10]: 32.5 mg/kg; mean lethal dose of cocaine [7, 10]: 37.0 mg/kg
B2 | bound all three conjugates | 490 | 0.11 | 1100 | –
B3 | bound all three conjugates | 1020 | 0.072 | 880 | –
B4 | bound all three conjugates | 3000 | 0.011 | 420 | –
B5 | bound only TSA-1 and 3 | 270 | 0.015 | 140 | –
B6 | bound only TSA-1 and 3 | 530 | 0.60 | 5500 | –
B7 | bound only TSA-1 and 3 | 1200 | 0.12 | 1100 | –
B8 | – | – | – | – | binding activity by Elisa [8]: demonstrated binding activity; catalytic activity (release of ^3H-benzoic acid from ^3H-phenyl-cocaine) ([6]; result in words): Enzymatic activity was confirmed
B9 | – | – | – | – | effect on toxicity due to intraperitoneal cocaine [9]: inhibit toxicity
